Article PMC5080453 (2016)

Target: BMPER_N (Homo sapiens (Human), UniProt Q8N8U9)
Experiment: SPR (Tsg on chip); one cell MST

BMPER_N, sequence (Q8N8U9 40-369): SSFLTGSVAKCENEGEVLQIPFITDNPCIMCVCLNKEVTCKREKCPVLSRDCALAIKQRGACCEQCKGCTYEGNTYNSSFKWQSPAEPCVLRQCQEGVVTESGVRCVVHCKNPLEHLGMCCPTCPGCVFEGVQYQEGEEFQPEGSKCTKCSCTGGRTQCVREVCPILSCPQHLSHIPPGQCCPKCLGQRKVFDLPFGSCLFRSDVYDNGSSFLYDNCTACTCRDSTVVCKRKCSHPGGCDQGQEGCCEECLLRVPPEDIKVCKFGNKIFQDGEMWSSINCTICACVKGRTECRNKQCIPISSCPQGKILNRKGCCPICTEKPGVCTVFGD

B1: TWSG1 (protein)
chain: CNKALCASDVSKCLIQELCQCRPGEGNCSCCKECMLCLGALWDECCDCVGMCNPRNYSDTPPTSKSTVEELHEPIPSLFRALTEGDTQLNWNIVSFPVAEELSHHENLVSFLETVNQPHHQNVSVPSNNVHAPYSSDKEHMCTVVYFDDCMSIHQCKISCESMGASKYRWFHNACCECIGPECIDYGSKTVKCMNCMF
B1 gave a Kd of 0.55 nM.
